Legend:
Assay in all cases: fluorescence polarisation
[1] = target: HalM2 (haloduracin lanthipeptide synthetase) (Bacillus halodurans C-125)
[2] = target: fluorescein-labeled HalA2 (Bacillus halodurans C-125)
[3] = target: fluorescently-labeled, fully-modified HalA2 peptide (Bacillus halodurans C-125)
[4] = target: 5-FAM labeled HalA2 core peptide (Bacillus halodurans C-125)

Substance | IC50 [1] | Ki [1] | Kd [2] | Kd [3] | Kd [4]
unlabeled HalA2 leader peptide | 5.6 µM | 5.5 µM | – | – | –
HalM2 (haloduracin lanthipeptide synthetase) (enzyme) | – | – | 1.9 µM | 10.4 µM | –
unlabeled HalA2 peptide | 1.2 µM | 1.2 µM | – | – | –
HalCE2 (HalA2 leader peptide attached to the N-terminus of HalM2 through a (GS)15 linker) (enzyme) | – | – | – | – | 85 µM

From PMC4414810
